# T1: FLAG-hSIRT1-FL (full length human SIRT1, FLAG-tagged) (human, UniProt Q96EB6 1-747)
# T1 sequence (looked up): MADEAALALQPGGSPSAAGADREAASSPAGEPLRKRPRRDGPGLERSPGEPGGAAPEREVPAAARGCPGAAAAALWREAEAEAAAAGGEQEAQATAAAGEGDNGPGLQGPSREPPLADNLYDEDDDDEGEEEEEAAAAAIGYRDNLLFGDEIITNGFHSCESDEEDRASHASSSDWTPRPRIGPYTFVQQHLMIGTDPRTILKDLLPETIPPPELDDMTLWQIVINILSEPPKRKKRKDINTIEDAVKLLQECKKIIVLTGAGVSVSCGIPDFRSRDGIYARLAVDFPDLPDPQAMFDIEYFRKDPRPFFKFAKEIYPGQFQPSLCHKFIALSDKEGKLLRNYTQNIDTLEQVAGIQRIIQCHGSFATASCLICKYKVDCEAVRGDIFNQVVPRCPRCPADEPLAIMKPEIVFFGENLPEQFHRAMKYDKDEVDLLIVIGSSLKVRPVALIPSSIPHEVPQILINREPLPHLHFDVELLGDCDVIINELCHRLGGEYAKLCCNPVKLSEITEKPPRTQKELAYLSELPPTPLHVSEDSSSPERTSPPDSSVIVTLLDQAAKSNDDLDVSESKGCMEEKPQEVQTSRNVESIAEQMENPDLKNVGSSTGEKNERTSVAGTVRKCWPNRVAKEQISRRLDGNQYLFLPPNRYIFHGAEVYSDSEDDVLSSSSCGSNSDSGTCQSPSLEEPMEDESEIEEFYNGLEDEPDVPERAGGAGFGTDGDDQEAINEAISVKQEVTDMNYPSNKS
# Target: T1, FLAG-hSIRT1-FL (full length human …)
# Test: pull-down
binder,measurement,value
"GST-TDG(67–308) (domain or fragment, human, UniProt Q13569 67-308, looked up) TTEPKQPVEPKKPVESKKSGKSAKSKEKQEKITDTFKVKRKVDRFNGVSEAELLTKTLPDILTFNLDIVIIGINPGLMAAYKGHHYPGPGNHFWKCLFMSGLSEVQLNHMDDHTLPGKYGIGFTNMVERTTPGSKDLSSKEFREGGRILVQKLQKYQPRIAVFNGKCIYEIFSKEVFGVKVKNLEFGLQPHKIPDTETLCYVMPSSSARCAQFPRAQDKVHYYIKLKDLRDQLKGIERNMDV",binding result,binds
